Tests used:
[1] = target: T1, RHOA-LgBiT-N (RhoA fused to LgBiT) (human (from the RefSeq entry NM_001664; …, UniProt P61586 1-193); test: split reporter (BiFC, NanoBiT); NanoBiT in HEK293T cells co-transfected with SmBiT and LgBiT fusion plasmids (500 ng DNA in all, 24-well plate); 24 h after transfection medium replaced by OPTI-MEM, substrate added, signal read for 30 min; negative control: SmBiT-MAP3K1 plasmid alone; conditions: partners not purified
T1 construct: RhoA, RHOA gene (NM_001664); On which end of RhoA the LgBiT stands is not clear from the two names used; also called LgBit-RhoA-N; source: HEK293T, transfected, in cells

RHOA-3×Flag = target: T2, RHOA-3×Flag (human (from the RefSeq entry NM_001664; …, UniProt P61586 1-193); test: co-IP; HEK293T cells co-transfected with MAP3K1-3×HA and RHOA-3×Flag; 48 h after transfection lysed in modified RIPA buffer; anti-Flag or anti-HA magnetic beads overnight at 4°C; blot with anti-HA or anti-FLAG; ratio of Co-IP to IP band intensity; conditions: partners not purified
T2 construct: RhoA, RHOA gene (NM_001664) cloned into p3×Flag-CMV-14; also called RhoA-Flag; source: HEK293T, transfected, in lysate
T2 sequence (P61586 whole entry): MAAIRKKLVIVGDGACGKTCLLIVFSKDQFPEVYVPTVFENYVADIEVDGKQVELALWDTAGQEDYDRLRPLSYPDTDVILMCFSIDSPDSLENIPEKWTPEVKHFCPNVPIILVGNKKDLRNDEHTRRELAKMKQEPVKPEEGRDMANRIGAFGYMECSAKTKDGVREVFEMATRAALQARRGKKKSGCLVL

T1 sequence (P61586 whole entry, the tested form may be a part): as the sequence (P61586 whole entry) above

B1: MAP3K1^R186G-SmBiT-C (R186G variant of MAP3K1 fused to SmBiT) (enzyme, human, UniProt Q13233 1-1512, looked up)
chain: MAAAAGNRASSSGFPGARATSPEAGGGGGALKASSAPAAAAGLLREAGSGGRERADWRRRQLRKVRSVELDQLPEQPLFLAASPPASSTSPSPEPADAAGSGTGFQPVAVPPPHGAASRGGAHLTESVAAPDSGASSPAAAEPGEKRAPAAEPSPAAAPAGREMENKETLKGLHKMDDRPEERMIGEKLKATCMPAWKHEWLERRNRRGPVVVKPIPVKGDGSEMNHLAAESPGEVQASAASPASKGRRSPSPGNSPSGRTVKSESPGVRRKRVSPVPFQSGRITPPRRAPSPDGFSPYSPEETNRRVNKVMRARLYLLQQIGPNSFLIGGDSPDNKYRVFIGPQNCSCARGTFCIHLLFVMLRVFQLEPSDPMLWRKTLKNFEVESLFQKYHSRRSSRIKAPSRNTIQKFVSRMSNSHTLSSSSTSTSSSENSIKDEEEQMCPICLLGMLDEESLTVCEDGCRNKLHHHCMSIWAEECRRNREPLICPLCRSKWRSHDFYSHELSSPVDSPSSLRAAQQQTVQQQPLAGSRRNQESNFNLTHYGTQQIPPAYKDLAEPWIQVFGMELVGCLFSRNWNVREMALRRLSHDVSGALLLANGESTGNSGGSSGSSPSGGATSGSSQTSISGDVVEACCSVLSMVCADPVYKVYVAALKTLRAMLVYTPCHSLAERIKLQRLLQPVVDTILVKCADANSRTSQLSISTLLELCKGQAGELAVGREILKAGSIGIGGVDYVLNCILGNQTESNNWQELLGRLCLIDRLLLEFPAEFYPHIVSTDVSQAEPVEIRYKKLLSLLTFALQSIDNSHSMVGKLSRRIYLSSARMVTTVPHVFSKLLEMLSVSSSTHFTRMRRRLMAIADEVEIAEAIQLGVEDTLDGQQDSFLQASVPNNYLETTENSSPECTVHLEKTGKGLCATKLSASSEDISERLASISVGPSSSTTTTTTTTEQPKPMVQTKGRPHSQCLNSSPLSHHSQLMFPALSTPSSSTPSVPAGTATDVSKHRLQGFIPCRIPSASPQTQRKFSLQFHRNCPENKDSDKLSPVFTQSRPLPSSNIHRPKPSRPTPGNTSKQGDPSKNSMTLDLNSSSKCDDSFGCSSNSSNAVIPSDETVFTPVEEKCRLDVNTELNSSIEDLLEASMPSSDTTVTFKSEVAVLSPEKAENDDTYKDDVNHNQKCKEKMEAEEEEALAIAMAMSASQDALPIVPQLQVENGEDIIIIQQDTPETLPGHTKAKQPYREDTEWLKGQQIGLGAFSSCYQAQDVGTGTLMAVKQVTYVRNTSSEQEEVVEALREEIRMMSHLNHPNIIRMLGATCEKSNYNLFIEWMAGGSVAHLLSKYGAFKESVVINYTEQLLRGLSYLHENQIIHRDVKGANLLIDSTGQRLRIADFGAAARLASKGTGAGEFQGQLLGTIAFMAPEVLRGQQYGRSCDVWSVGCAIIEMACAKPPWNAEKHSNHLALIFKIASATTAPSIPSHLSPGLRDVALRCLELQPQDRPPSRELLKHPVFRTTW
notes: Same construct as m1 with the patient variant; The end of the SmBiT is not clear; also called MAP3K1-Mut; p.R186G variant; source: HEK293T, transfected, in cells
[1]
  fold of the wild type's NanoBiT signal: 3.19 ± 0.18 fold of wild type

B2: MAP3K1^R186G-3×HA (enzyme, human, UniProt Q13233 1-1512, looked up)
chain: MAAAAGNRASSSGFPGARATSPEAGGGGGALKASSAPAAAAGLLREAGSGGRERADWRRRQLRKVRSVELDQLPEQPLFLAASPPASSTSPSPEPADAAGSGTGFQPVAVPPPHGAASRGGAHLTESVAAPDSGASSPAAAEPGEKRAPAAEPSPAAAPAGREMENKETLKGLHKMDDRPEERMIGEKLKATCMPAWKHEWLERRNRRGPVVVKPIPVKGDGSEMNHLAAESPGEVQASAASPASKGRRSPSPGNSPSGRTVKSESPGVRRKRVSPVPFQSGRITPPRRAPSPDGFSPYSPEETNRRVNKVMRARLYLLQQIGPNSFLIGGDSPDNKYRVFIGPQNCSCARGTFCIHLLFVMLRVFQLEPSDPMLWRKTLKNFEVESLFQKYHSRRSSRIKAPSRNTIQKFVSRMSNSHTLSSSSTSTSSSENSIKDEEEQMCPICLLGMLDEESLTVCEDGCRNKLHHHCMSIWAEECRRNREPLICPLCRSKWRSHDFYSHELSSPVDSPSSLRAAQQQTVQQQPLAGSRRNQESNFNLTHYGTQQIPPAYKDLAEPWIQVFGMELVGCLFSRNWNVREMALRRLSHDVSGALLLANGESTGNSGGSSGSSPSGGATSGSSQTSISGDVVEACCSVLSMVCADPVYKVYVAALKTLRAMLVYTPCHSLAERIKLQRLLQPVVDTILVKCADANSRTSQLSISTLLELCKGQAGELAVGREILKAGSIGIGGVDYVLNCILGNQTESNNWQELLGRLCLIDRLLLEFPAEFYPHIVSTDVSQAEPVEIRYKKLLSLLTFALQSIDNSHSMVGKLSRRIYLSSARMVTTVPHVFSKLLEMLSVSSSTHFTRMRRRLMAIADEVEIAEAIQLGVEDTLDGQQDSFLQASVPNNYLETTENSSPECTVHLEKTGKGLCATKLSASSEDISERLASISVGPSSSTTTTTTTTEQPKPMVQTKGRPHSQCLNSSPLSHHSQLMFPALSTPSSSTPSVPAGTATDVSKHRLQGFIPCRIPSASPQTQRKFSLQFHRNCPENKDSDKLSPVFTQSRPLPSSNIHRPKPSRPTPGNTSKQGDPSKNSMTLDLNSSSKCDDSFGCSSNSSNAVIPSDETVFTPVEEKCRLDVNTELNSSIEDLLEASMPSSDTTVTFKSEVAVLSPEKAENDDTYKDDVNHNQKCKEKMEAEEEEALAIAMAMSASQDALPIVPQLQVENGEDIIIIQQDTPETLPGHTKAKQPYREDTEWLKGQQIGLGAFSSCYQAQDVGTGTLMAVKQVTYVRNTSSEQEEVVEALREEIRMMSHLNHPNIIRMLGATCEKSNYNLFIEWMAGGSVAHLLSKYGAFKESVVINYTEQLLRGLSYLHENQIIHRDVKGANLLIDSTGQRLRIADFGAAARLASKGTGAGEFQGQLLGTIAFMAPEVLRGQQYGRSCDVWSVGCAIIEMACAKPPWNAEKHSNHLALIFKIASATTAPSIPSHLSPGLRDVALRCLELQPQDRPPSRELLKHPVFRTTW
notes: human MAP3K1, full-length cDNA NM_005921.2 with the patients' variant c.556A>G, cloned into pcDNA3.1(+)-3×HA; Same construct as m7 with the patient variant; also called R186G variant; source: HEK293T, transfected, in lysate
RHOA-3×Flag
  fold of the wild type's ratio of Co-IP to IP signal: 2.57 times wild type

From article PMC8927045, “MAP3K1 Variant Causes Hyperactivation of Wnt4/β-Catenin/FOXL2 Signaling Contributing to 46,XY Disorders/Differences of Sex Development” (Frontiers in Genetics, 2022)
